Results on 60 molecules are retold here after patent US20220111022A1 (IMMATICS BIOTECHNOLOGIES, published 2022).

A value given as a limit tells only on which side of the number the result lay.

The target of this test is T1, HLA-A*02:01 (human).
T1 construct: MHC monomers first loaded with a UV-sensitive peptide (not identified) that is cleaved and exchanged for the test peptide; captured on streptavidin-coated plates and detected with anti-β2m; also called peptide-receptive MHC molecules; MHC class I
Description: UV-ligand exchange, anti-b2m ELISA; peptide exchange yield grade. An excerpt:
Candidate peptides for T cell based therapies according to the present invention were further tested for their MHC binding capacity (affinity). The individual peptide-MHC complexes were produced by UV-ligand exchange, where a UV-sensitive peptide is cleaved upon UV-irradiation and exchanged with the peptide of interest as analyzed. Only peptide candidates that can effectively bind and stabilize the peptide-receptive MHC molecules prevent dissociation of the MHC complexes. To determine the yield of the exchange reaction, an ELISA was performed based on the detection of the light chain (β2m) of stabilized MHC complexes. The assay was performed as generally described in Rodenko et al. (Rodenko et al., 2006).
96 well MAXISorp plates (NUNC) were coated over night with 2 μg/ml streptavidin in PBS at room temperature, washed 4× and blocked for 1 h at 37° C. in 2% BSA containing blocking buffer. Refolded HLA-A*02:01/MLA-001 monomers served as standards, covering the range of 15-500 ng/ml. Peptide-MHC monomers of the UV-exchange reaction were diluted 100-fold in blocking buffer. Samples were incubated for 1 h at 37° C., washed four times, incubated with 2 μg/ml HRP conjugated anti-β2m for 1h at 37° C., washed again and detected with TMB solution that is stopped with […]. Absorption was measured at 450 nm. Candidate peptides that show a high exchange yield (preferably higher than 50%, most preferred higher than 75%) are generally preferred for a generation and production of antibodies or fragments thereof, and/or T cell receptors or fragments thereof, as they show sufficient avidity to the MHC molecules and prevent dissociation of the MHC complexes.
In the case of SLRDGTEVV, the peptide exchange yield fell in the range of 50 to 75%.

With FVDEHTIDI, the peptide exchange yield fell in the range of 50 to 75%.

For AVDGTDARL, the peptide exchange yield lay within 50 to 75%.

ILFDLTHRV: the peptide exchange yield is ≥ 75%.

On to FLDQTDETL, for which the peptide exchange yield lay within 50 to 75%.

LLDATHQI: the peptide exchange yield was ≥ 75%.

For the molecule SLFDDSFSL, the peptide exchange yield is ≥ 75%.

As to YVWDRTELL, the peptide exchange yield was ≥ 75%.

For the molecule SLDISLPNL, the peptide exchange yield is ≥ 75%.

AIYHDITGISV had a peptide exchange yield of 50 to 75%.

As to IQDTSHLAV, the peptide exchange yield was 50 to 75%.

Consider FLDTSTADV, for which the peptide exchange yield was ≥ 75%.

As for TLIDATWLV, the peptide exchange yield was ≥ 75%.

With QLLGRDISL, the peptide exchange yield was ≥ 75%.

For FMNDRSFIL, the peptide exchange yield is ≥ 75%.

As to GLVDGSSVTV, the peptide exchange yield was ≥ 75%.

As to QLMEKVQDV, the peptide exchange yield lay within 50 to 75%.

On to KLLNDLTSI, for which the peptide exchange yield is ≥ 75%.

In the case of VLMDGTLKQV, the peptide exchange yield was ≥ 75%.

RLLEGDFSL: the peptide exchange yield was ≥ 75%.

NVDSTILNL: the peptide exchange yield is ≥ 75%.

Regarding KLLDLTVRI, the peptide exchange yield was ≥ 75%.

Molecule YIYDGKDMSSL had a peptide exchange yield of 50 to 75%.

In the case of ILFDDSVFTL, the peptide exchange yield is ≥ 75%.

On to ALDDYTITF, for which the peptide exchange yield was ≥ 75%.

As to ILDSTTIEI, the peptide exchange yield was ≥ 75%.

On to FLGPIVDL, for which the peptide exchange yield was ≥ 75%.

FLGEDISNFL: the peptide exchange yield is ≥ 75%.

As to ILDEAKDISF, the peptide exchange yield fell in the range of 50 to 75%.

SLSDVSQAV returned a peptide exchange yield of 50 to 75%.

Take ALPQFFNDV: the peptide exchange yield is ≥ 75%.

For the molecule WLIDKSMEL, the peptide exchange yield was ≥ 75%.

In the case of NLYNDLTNV, the peptide exchange yield was in the range of 50 to 75%.

For AIDDTAARL, the peptide exchange yield was in the range of 50 to 75%.

For the molecule VIDSTLVKV, the peptide exchange yield lay within 50 to 75%.

In the case of KTWDQSIAL, the peptide exchange yield was ≥ 75%.

FLNLFDHTL: the peptide exchange yield was ≥ 75%.

SLYDFTGEQMAA registered a peptide exchange yield of 50 to 75%.

As to TLDATVVEL, the peptide exchange yield was ≥ 75%.

Take VLDDTLVIF: the peptide exchange yield lay in the range of 50 to 75%.

Take ALADLTGTVVNL: the peptide exchange yield is ≥ 75%.

SLLFQDITL: the peptide exchange yield was ≥ 75%.

Turning to SLLDGSESAKL, the peptide exchange yield is ≥ 75%.

With RLLDTTDVYLL, the peptide exchange yield was ≥ 75%.

With SQDASLLKV, the peptide exchange yield was 50 to 75%.

For FLLDGTDMFHM, the peptide exchange yield is 50 to 75%.

In the case of SLFAYPLPDV, the peptide exchange yield was ≥ 75%.

Turning to HLCNHDVSL, the peptide exchange yield is ≥ 75%.

Molecule YMDGTMSQV showed a peptide exchange yield of 50 to 75%.

For the molecule HMIDLTIHL, the peptide exchange yield fell in the range of 50 to 75%.

Regarding YLFEDISQL, the peptide exchange yield is ≥ 75%.

For KLEERVYDV, the peptide exchange yield is ≥ 75%.

For the molecule LLDSTAHLL, the peptide exchange yield was ≥ 75%.

AVFDQTVTVI: the peptide exchange yield was 50 to 75%.

TLDITIVNL: the peptide exchange yield is ≥ 75%.

For ILYDGSNIQL, the peptide exchange yield was ≥ 75%.

As to ALYDSTRELL, the peptide exchange yield is ≥ 75%.

The molecule ILTDITGHDV showed a peptide exchange yield of 50 to 75%.

The molecule KLISDMGKDVSA gave a peptide exchange yield of 50 to 75%.

With SQTDLSPAL, the peptide exchange yield is ≥ 75%.
